Experimental data from patent US20220184120A1 (MINERVA BIOTECHNOLOGIES, published 2022).
Residue numbers refer to the chain shown, from its start.

T1: N+20/C-27 peptide (20 amino acids added onto the N-terminus and 27 deleted from the C-terminus of PSMGFR)
T1 peptide: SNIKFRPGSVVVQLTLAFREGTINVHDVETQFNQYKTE

T2: PSMGFR peptide (Primary Sequence of the MUC1 Growth Factor Receptor)
T2 construct: synthetic peptide immobilised on ELISA plates; also called MUC1* peptide; MUC1* extra cellular domain peptide
T2 peptide: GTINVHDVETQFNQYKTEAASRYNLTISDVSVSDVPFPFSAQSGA

T3: N+9/C-9 peptide (9 amino acids added onto the N-terminus and 9 deleted from the C-terminus of PSMGFR)
T3 peptide: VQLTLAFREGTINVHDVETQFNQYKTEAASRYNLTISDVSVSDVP

T4: C-10 peptide (PSMGFR minus 10 amino acids from the C-terminus)
T4 construct: also called C-10 PSMGFR; PSMGFR C-10
T4 peptide: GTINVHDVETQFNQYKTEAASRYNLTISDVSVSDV

T5: NME7-AB (recombinant) (Homo sapiens (Human), UniProt Q9Y5B8 92-376)
T5 construct: the entry ends in a His tag; also called NM23-H7
T5 sequence: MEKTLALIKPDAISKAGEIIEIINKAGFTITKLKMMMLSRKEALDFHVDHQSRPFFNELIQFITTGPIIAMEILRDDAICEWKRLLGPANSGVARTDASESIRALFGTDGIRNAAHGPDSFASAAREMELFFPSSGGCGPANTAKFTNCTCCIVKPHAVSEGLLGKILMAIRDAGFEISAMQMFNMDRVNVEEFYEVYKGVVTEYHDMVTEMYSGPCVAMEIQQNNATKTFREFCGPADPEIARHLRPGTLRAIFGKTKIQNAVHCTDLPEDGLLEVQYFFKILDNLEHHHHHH

T6: N-10/C-5 peptide
T6 peptide: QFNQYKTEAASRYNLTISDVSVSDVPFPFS

T7: N-19/C-5 peptide
T7 peptide: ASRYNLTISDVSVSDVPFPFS

T8: N-19 peptide
T8 peptide: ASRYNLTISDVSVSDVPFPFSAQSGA

T9: N-30 peptide
T9 peptide: SVSDVPFPFSAQSGA

T10: N-26 peptide
T10 peptide: ISDVSVSDVPFPFSAQSGA

B1: MN-C2 mouse monoclonal anti-MUC1* antibody (antibody, V domains shown)
VH: EVQLEESGGGLVKPGGSLKLSCAASGFTFSGYAMSWVRQTPEKRLEWVATISSGGTYIYYPDSVKGRFTISRDNAKNTLYLQMSSLRSEDTAMYYCARLGGDNYYEYFDVWGAGTTVTVSS
VL: DIVITQSTASLGVSLGQRATISCRASKSVSTSGYSYMHWYQQRPGQPPKLLIYLASNLESGVPARFSGSGSGTDFTLNIHPVEEEDAATYYCQHSRELPFTFGGGTKLEIKR
notes: mouse monoclonal raised against PSMGFR; also called Min-C2
B2: N-10 peptide (PSMGFR minus 10 amino acids from the N-terminus) (peptide)
peptide: QFNQYKTEAASRYNLTISDVSVSDVPFPFSAQSGA
notes: also called N-10 PSMGFR; PSMGFR N-10
B3: 20A10 mouse monoclonal antibody (antibody, V domains shown)
VH: EVMLVESGGGLVKPGGSLKLSCAASGFTFSTYAMSWIRQTPEKRLEWVASIGRAGSTYYSDSVKGRFTISRDNVRNILYLQMSSLRSEDTAMYYCARGPIYNDYDEFAYWGQGTLVTVSA
VL: NIMMTQSPSSLAVSAGEKVTMSCKSSQSVLYSSNQKNYLAWYQQKPGQSPKLLIYWASTRESGVPDRFTGSGSGTDFTLTISSVQAEDLAVYYCHQYLSSLTFGAGTKLELK
notes: raised against PSMGFR; also called MN-20A10; anti-PSMGFR antibody 20A10
B4: 18B4 mouse monoclonal antibody (antibody, V domains shown)
VH: EVKLEESGGGLVQPGGSMKLSCAASGFTFNDAWMDWVRQSPEKGLEWVAEIRSTANIHTTYYAESVQGRFTISRDDSKSSVYLQMNSLRAEDTGIYYCTPLLYGFAYWGQGTLVTVSA
VL: DVVMTQSPLSLPVSLGDQASISCRTSQSLVHSNGNTYLHWHLQKPGQSPKVLIYKVSSRFSGVPDRFSGSGSGTDFTLKISRVEAEDLGVYFCSQNTHVPYTFGGGTKLEIK
notes: raised against PSMGFR; also called anti-PSMGFR antibody 18B4
B5: MN-C3 mouse monoclonal anti-MUC1* antibody (antibody, V domains shown)
VH: QVQLQQSGPELVRPGVSVKISCKGSGYRFTDYAMNWVKQSHAKSLEWIGVISTFSGNTNFNQKFKGKATMTVDKSSSTAYMELARLTSEDSAMYYCARSDYYGPYFDYWGQGTTLTVSS
VL: DVLMTQTPLSLPVSLGDQASISCRSSQTIVHSNGNTYLEWYLQKPGQSPKLLIYKVSNRFSGVPDRFSGSGSGTDFTLKINRVEAEDLGVYYCFQGSHVPFTFGSGTKLEIK
notes: mouse monoclonal raised against PSMGFR; also called Min-C3
B6: 17H6 mouse monoclonal antibody (antibody, V domains shown)
VH: EVKLVESGGGLVQPGGSLRLSCATSGFTFTDYYMSWVRQPPRKALEWLGFIRNKANGYTAEYSASVKGRFTISRDVSQNLLYLQMNILRAEDSATYYCAKDYYGSNPAWFAYWGQGTLVTVSA
VL: B5 VL with V2I, T28S, N33S, Y37F, T74I, N81S
notes: raised against N+9/C-9; also called N+9/C-9 antibody 17H6

Key:
[1] = molecular target: T1, N+20/C-27 peptide (20 amino acids added …); assay: ELISA (FIG. 63)
Procedure: (§1) ELISA assays were performed to determine if, in addition to recognizing their immunizing peptide, they recognized PSMGFR, N−10 or C−10. In addition, they were tested for their ability to bind to N+20/C−27, N+9/C−9. We first did the ELISA assay on our set of reference antibodies, MNC2, MNE6, which we know are cancer-specific plus MNC3, which we know recognizes stem cells and progenitor cells (FIG. 63A-63B). None of the reference antibodies bound to the N+20/C−27 peptide. MNC2 and MNE6 cannot bind to PSMGFR peptides with 27, 10 or 9 C-terminal deletions, however, MNC3 binds to C−10 and to N+9/C−9 peptides.

[2] = molecular target: B2; assay: ELISA (FIG. 2B-2C)
[3] = molecular target: T2, PSMGFR peptide (Primary Sequence of the …); assay: ELISA (FIG. 2B)
[4] = molecular target: T3, N+9/C-9 peptide (9 amino acids added …); assay: ELISA (FIG. 64A)
[5] = molecular target: T4, C-10 peptide (PSMGFR minus 10 amino …); assay: ELISA (FIG. 64A)
NME7-AB (recombinant) = molecular target: T5, NME7-AB (recombinant); assay: ELISA (FIG. 2A-2D)
Procedure: (§2) FIGS. 2A-2I show results of ELISA assays. MUC1* peptides PSMGFR, PSMGFR minus 10 amino acids from the N-terminus aka N−10, or PSMGFR minus 10 amino acids from the C-terminus, aka C−10 are immobilized on the plate and the following are assayed for binding: NME7-AB (FIG. 2A), MN-C2 monoclonal antibody (FIG. 2B), MN-E6 monoclonal antibody (FIG. 2C), or dimeric NME1 (FIG. 2D). […] MUC1* peptides PSMGFR minus 10 amino acids from the N-terminus aka N−10, or PSMGFR minus 10 amino acids from the C-terminus, aka C−10, are immobilized on the plate and the following are assayed for binding: MN-C3 (FIG. 2E) and MN-C8 (FIG. 2F).

[6] = molecular target: B2; assay: ELISA
[7] = molecular target: T2, PSMGFR peptide (Primary Sequence of the …); assay: ELISA
[8] = molecular target: T4, C-10 peptide (PSMGFR minus 10 amino …); assay: ELISA
[9] = molecular target: T1, N+20/C-27 peptide (20 amino acids added …); assay: ELISA (FIG. 64A)
[10] = molecular target: T3, N+9/C-9 peptide (9 amino acids added …); assay: ELISA (FIG. 63)
Procedure: as §1

[11] = molecular target: B2; assay: Table 4 criterion 1, Binds N-10
[12] = molecular target: T2, PSMGFR peptide (Primary Sequence of the …); assay: ELISA (FIG. 9)
[13] = molecular target: T4, C-10 peptide (PSMGFR minus 10 amino …); assay: ELISA (FIG. 2E)
Procedure: as §2

[14] = molecular target: B2; assay: ELISA (FIG. 69)
Procedure: (§3) In order to further refine the epitopes to which each antibody binds, a series of smaller peptides derived from the PSMGFR sequence were synthesized: N−30 (SEQ ID NO:7), N−26 (SEQ ID NO:6), N−19 (SEQ ID NO:4), N−10/C−5 (SEQ ID NO:8), N−19/C−5 (SEQ ID NO:9). Each of the antibodies was tested in an ELISA assay for their ability to bind to this refined set of peptides, plus PSMGFR, N−10 and C−10 peptides (FIG. 67-69).

N-10/C-5 peptide = molecular target: T6, N-10/C-5 peptide; assay: ELISA (FIG. 69)
Procedure: as §3

N-19/C-5 peptide = molecular target: T7, N-19/C-5 peptide; assay: ELISA (FIG. 69)
Procedure: as §3

N-19 peptide = molecular target: T8, N-19 peptide; assay: ELISA (FIG. 69)
Procedure: as §3

N-30 peptide = molecular target: T9, N-30 peptide; assay: ELISA (FIG. 69)
Procedure: as §3

N-26 peptide = molecular target: T10, N-26 peptide; assay: ELISA (FIG. 69)
Procedure: as §3

Binder: B1
- binding result [1]: no binding
- binding result [2]: binds
- binding result [3]: binds
- binding result [4]: no binding
- binding result [5]: no binding

Binder: B2
- binding result (NME7-AB (recombinant)): binds

Binder: B3
- binding result [6]: binds
- binding result [7]: binds
- binding result [4]: no binding
- binding result [5]: no binding

Binder: B4
- binding result [6]: no binding
- binding result [8]: binds
- binding result [7]: binds
- binding result [4]: binds
- binding result [9]: binds

Binder: B5
- binding result [10]: binds
- binding result [1]: no binding
- binding result [11]: binds
- binding result [12]: binds
- binding result [13]: binds

Binder: B6
- binding result [14]: no binding
- binding result (N-10/C-5 peptide): no binding
- binding result (N-19/C-5 peptide): no binding
- binding result (N-19 peptide): no binding
- binding result (N-30 peptide): no binding
- binding result (N-26 peptide): no binding
